Experimental data from paper PMC7674646, “Structural and Functional Analyses of the Transcription Repressor DgoR From Escherichia coli Reveal a Divalent Metal-Containing D-Galactonate Binding Pocket” (Frontiers in Microbiology, 2020).
Where a chain is given by its changes, count along the chain named.

How the values were obtained:
Assay in all cases: EMSA
Details in all cases: EMSA: 25 mM Tris-HCl pH 8.0, 50 mM KCl, 2.5 mM MgCl2, 5% glycerol, 1 mM DTT, 100 ug/mL salmon sperm DNA, 100 ng Cy5 probe in 20 ul, 25 C 20 min; native PAGE at …
[1] = target: T1, DgoR (EcoDgoR) WT (Escherichia coli) (UniProt P31460)
T1 sequence: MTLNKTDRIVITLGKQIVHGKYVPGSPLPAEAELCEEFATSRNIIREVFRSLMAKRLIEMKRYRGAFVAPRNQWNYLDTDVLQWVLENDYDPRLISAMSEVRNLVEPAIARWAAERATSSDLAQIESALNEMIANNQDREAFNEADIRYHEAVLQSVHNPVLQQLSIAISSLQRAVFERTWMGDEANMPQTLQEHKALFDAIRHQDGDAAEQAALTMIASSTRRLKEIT

[2] = target: T2, DgoR R224A R224A (Escherichia coli) (UniProt P31460)
T2 sequence: T1 sequence with R224A

[3] = target: T3, DgoR Q173A Q173A (Escherichia coli) (UniProt P31460)
T3 sequence: T1 sequence with Q173A

[4] = target: T4, DgoR D146A D146A (Escherichia coli) (UniProt P31460)
T4 sequence: T1 sequence with D146A

[5] = target: T5, DgoR R179A R179A (Escherichia coli) (UniProt P31460)
T5 sequence: T1 sequence with R179A

[6] = target: T6, DgoR D184A D184A (Escherichia coli) (UniProt P31460)
T6 sequence: T1 sequence with D184A

[7] = target: T7, DgoR T191A T191A (Escherichia coli) (UniProt P31460)
T7 sequence: T1 sequence with T191A

[8] = target: T8, DgoR H195A H195A (Escherichia coli) (UniProt P31460)
T8 sequence: T1 sequence with H195A

[9] = target: T9, DgoR W181A W181A (Escherichia coli) (UniProt P31460)
T9 sequence: T1 sequence with W181A

[10] = target: T10, DgoR R102A R102A (Escherichia coli) (UniProt P31460)
T10 sequence: T1 sequence with R102A

[11] = target: T11, DgoR R224E R224E (Escherichia coli) (UniProt P31460)
T11 sequence: T1 sequence with R224E

[12] = target: T12, DgoR H150A H150A (Escherichia coli) (UniProt P31460)
T12 sequence: T1 sequence with H150A

[13] = target: T13, DgoR S221A S221A (Escherichia coli) (UniProt P31460)
T13 sequence: T1 sequence with S221A

TGTAAAACGACGGCCAGTGCATTGTTCTTTTTGTGATCTAAATTGTAGTACAACAATATAAGTTTGTACTACATTACACGCACGGCAAACGCGAACGTCATCACGCTGGTACTACAAAGTTGCCGCGTTATGCATCGATCGGGGTAAAGTAGAGAAGAACATACAGAGCACAAGGACTCTCCATGACTCTCAATAAAACCGATCGCATTGTC (double strand) [dgo cis-acting element (promoter region)]
binding [1]: binds
binding [2]: binds more weakly
binding [3]: binds more weakly
binding [4]: binds
binding [5]: binds
binding [6]: binds more weakly
binding [7]: binds more weakly
binding [8]: binds more weakly
binding [9]: binds
binding [10]: binds more weakly
binding [11]: binds more weakly
binding [12]: binds more weakly
binding [13]: binds
